The assay has as its target 123 different clinical envelope proteins. The assay is described as follows: cell-based or functional assay.

B1: CD4 B Adnectin (anti-CD4 Domain 4 Adnectin) (designed binder)
chain: MASTSGSASYLIPSDLEVVAATPTSLSIYWYPVASTIINFRITYVETGGNSPVQEFTVPGSKSTATISGLKPGVDYTITVYAVHYEQKYSEYWIGHPISINYRTEGSGSHHHHHH
Take B1: the Geometric mean EC50 (nM), cell-cell fusion assay is 163 nM; the Geometric mean EC50 (µg/mL), cell-cell fusion assay is 1.8 µg/mL; the Median EC50 (nM), cell-cell fusion assay was 1300 nM.

B2: CD4 A Adnectin (anti-CD4 Domain 2 Adnectin) (designed binder)
chain: GVSDVPRDLEVVAATPTSLLISWDAPAVTVHSYHIQYWPLGSYQRYQVFSVPGSKSTATISGLKPGVEYQIRVYAETGGADSDQSFGWIQIGYRTP
B2 had a Geometric mean EC50 (nM), cell-cell fusion assay of 5.5 nM; a Geometric mean EC50 (µg/mL), cell-cell fusion assay of 0.006 µg/mL; a Median EC50 (nM), cell-cell fusion assay of 5.3 nM.

Source of the values: patent US20240239877A1.
